The source of these data is publication PMC9062740.

Residue numbers refer to the chain shown, from its start. In names and notes the source's numbering stands.

This assay addresses taxol-stabilized microtubules polymerized from porcine brain tubulin, P02550. The assay is described as follows: MT-binding assay (cosedimentation). To be noted: chain shown with the change, […] taxol–MTs, parent: est. 1.0, read off a plot.

taxol-stabilized microtubules polymerized from porcine brain tubulin, P02550, sequence (P02550 whole entry, chain 1 of 2): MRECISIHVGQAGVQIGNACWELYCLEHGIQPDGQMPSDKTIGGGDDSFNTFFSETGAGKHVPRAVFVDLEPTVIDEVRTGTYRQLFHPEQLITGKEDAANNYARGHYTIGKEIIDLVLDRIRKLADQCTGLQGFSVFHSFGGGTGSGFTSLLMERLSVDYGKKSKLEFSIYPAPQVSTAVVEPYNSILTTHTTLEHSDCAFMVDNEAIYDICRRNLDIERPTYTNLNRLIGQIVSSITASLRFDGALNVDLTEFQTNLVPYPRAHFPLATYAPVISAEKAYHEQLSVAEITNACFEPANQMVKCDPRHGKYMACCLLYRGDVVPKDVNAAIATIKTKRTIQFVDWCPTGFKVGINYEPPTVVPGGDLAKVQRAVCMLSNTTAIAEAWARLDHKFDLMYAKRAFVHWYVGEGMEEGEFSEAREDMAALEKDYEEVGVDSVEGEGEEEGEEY
taxol-stabilized microtubules polymerized from porcine brain tubulin, P02550, sequence (chain, as listed by the source, chain 2 of 2): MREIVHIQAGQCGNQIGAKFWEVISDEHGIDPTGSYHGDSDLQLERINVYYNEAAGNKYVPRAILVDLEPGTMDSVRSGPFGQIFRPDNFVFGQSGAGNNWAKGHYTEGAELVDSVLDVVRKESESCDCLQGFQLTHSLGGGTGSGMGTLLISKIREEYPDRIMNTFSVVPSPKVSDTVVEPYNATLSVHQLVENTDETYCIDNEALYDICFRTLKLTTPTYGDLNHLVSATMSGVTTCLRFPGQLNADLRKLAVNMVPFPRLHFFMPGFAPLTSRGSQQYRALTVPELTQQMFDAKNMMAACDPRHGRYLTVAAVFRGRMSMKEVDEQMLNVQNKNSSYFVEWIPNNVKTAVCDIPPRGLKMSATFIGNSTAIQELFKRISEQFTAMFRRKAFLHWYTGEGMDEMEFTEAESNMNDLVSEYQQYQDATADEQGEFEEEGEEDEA

B1: CLIP-170 CG1 fragment (58-140), P30622 K98E (protein)
chain: FRVGERVWVNGNKPGFIQFLGETQFAPGQWAGIVLDEPIGENDGSVAGVRYFQCEPLKGIFTRPSKLTRKVQAEDEANGLQTT
Consider B1, for which the ratio to parent (5 μM CG1 mutant) amounted to 0.28.

B2: CLIP-170 CG1 fragment (58-140), P30622 K98E; N99D (protein)
chain: B1 chain with N42D
As to B2, for the setting “5 μM CG1 mutant”, the ratio to parent is 0.42.

B3: CLIP-170 CG1 fragment (58-140), P30622 K123A (protein)
chain: B1 chain with E41K, K66A
As to B3, the ratio to parent (5 μM CG1 mutant) stood at 0.52.

B4: CLIP-170 CG2 fragment (206-288), P30622 K238A (protein)
chain: KKGERELKIGDRVLVGGTKAGVVRFLGETDFAAGEWCGVELDEPLGKNDGAVAGTRYFQCQPKYGLFAPVHKVTKIGFPSTTP
For the molecule B4, the ratio to parent (5 μM CG2 mutant) is 0.97.

B5: CLIP-170 CG2 fragment (206-288), P30622 N253A (protein)
chain: B4 chain with A33K, N48A
Consider B5, for which the ratio to parent (5 μM CG2 mutant) was determined as 0.8.

B6: CLIP-170 CG2 fragment (206-288), P30622 K277A (protein)
chain: B4 chain with A33K, K72A
For B6, for the setting “5 μM CG2 mutant”, the ratio to parent came to 0.75.

B7: CLIP-170 CG2 fragment (206-288), P30622 K252E; N253D (protein)
chain: B4 chain with A33K, K47E, N48D
Take B7: the ratio to parent (5 μM CG2 mutant) turned out to be 0.23.

B8: CLIP-170 CG2 fragment (206-288), P30622 K252A (protein)
chain: B4 chain with A33K, K47A
In the case of B8, the ratio to parent (5 μM CG2 mutant) amounted to 0.28.

B9: CLIP-170 CG2 fragment (206-288), P30622 K224A (protein)
chain: B4 chain with K19A, A33K
Regarding B9, the ratio to parent (5 μM CG2 mutant) is 0.4.
